# Data: the domain aggregation screens of Martell et al. (2025)
# Test: soluble fraction after stress (log2 fold change); higher = more stays soluble; pooled small domains, quantitative proteomics
# Conditions: stress: 75 degC
# 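Also: 20 min heating vs room temperature control held 20 min.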
row,Sequence,soluble fraction (log2)
1,HMINAQETEIYRFLIEKANRLYSMVLGLKREELMTATRQFEEEVKHSSIHHLPKIYQAFSSYLELLERG,-1.2
2,HMINDKLQHLFSLFPAMDKELKRKGITRQILWVEYKKQYPLGFGRSQFNSYFAAWKAQVSPS,-1.98
3,HMINFLSKREIEVLRLVADGLSNRDVGQYLFISESTVKRHLSTIYEKLAVKSRTQAIDHARRADL,-3.6
4,HMINGTITFYDDTTLKGELSSLDTKYLFIIPNGLVMPEKIAVSDIEYFNLDNGITLIQDGISKQTY,-1.09
5,HMINLGDLEVGHTYHTRMPILQNDLKYSHKSPIQIVAEHSIVYGVRVYIGFLNEHRVLVTADDV,0.0105
6,HMINLRTALNNAGVMQKELSDILYMTPQDVNRRFSGVTKWKPLEKRAIMQFLEDRGFEYTEEQLF,-0.564
7,HMINLVPFELKFITAQVLDDIIKKIGINADTIILDINPKKIWVYAGEQELSDIQNIVKNVDVEDNI,-1.71
8,HMINVLTPKQIEATTIAVKYGYYENPRTVSMRELSEISGIARSTLQEHLSKAEAALMILAAKSQL,-0.365
9,HMINVVDEVIKHLETNIISGFWAPGQKIDSEATLSKQLNVSRASIHTAIQQLIATGVLESFQGKGTFVRS,-0.305
10,HMIPDGKWKEDPISDGQKNFINSLIEQAIDAGQDELGAEAKKYLASGEATKGNASAMIDKLKSAL,0.39
11,HMIPDMSLELAMSEQTSKGDLYGDLPNDKLALMFNAISKKVPHTDDHKRKMVAIQTILESRAS,-0.415
12,HMIPEGKWMEDPISEGQIKFIETLIKQAIDSGQDALGAEAKQYLSSGEATKGNASSMIDKLKDAL,0.433
13,HMIPEILNGYTKWGDDEPFEDHAGPFYMKMMPSTGRHLSAFIPEQRHMNGGGFLHGGMLMSFADYALFVI,0.244
14,HMIPEKEISYMMPDGFMPKELKIIHITESGRKQIYSAAHKPLDLVNVKAPFVPNTKVQIYINDVPIEELKI,-1.01
15,HMIPKDKQAWIALTYIYGVGRTTSMEILKKAQVGEEIRMKDLTEEEVTRIRNIIDKEYEVEGDLRRN,-0.252
16,HMIPNEKEAARWDALTAEHTAKLNALEGDALDKVGSHEDVSIKRAGVGDAAFREKILSRTHPDDLERALST,-0.0132
17,HMIQHFARKRRQLELAVQRLSGRMAETNGQVTADMQRLIQQVKALVAELSHVFSRAYLRRVLGGVALVIGS,-0.597
18,HMIQLTDAEFNELVTYIKKNYGINLIKKRLLIEARMYSVLAKHGFTSFTEYINLIKRDPAELNTMLNKLTT,-3.26
19,HMIQMRVKVPKNIAGGSLMGAHHFVKSALARTNPGGSTSNYKIQATDGTPLTLGDLTARQYDEVLIISG,-0.668
20,HMIQTKKVTFTVEPTVNFEKINISGIEFKINSGSSITAIYEKNSHNFDEVLDFLKQKGVKILDIVTED,-0.251
21,HMIRILIVDDSAFMRKLLSDVFEEDKNFVVVDTARNGQDAVEKVKRLKPDLVTMDVEMPVMDGLTAVEIIM,-0.453
22,HMIRSNLAEQAYAQLKALIHDFQLLPGDRFSENEMGTRLGVSRTPVREALFRLRNEGFLEVESKAGWYVK,-3.04
23,HMISAADLQTYLKGMDYPAGREDLVAHAQRNNAPESVITILQGFSDRTYRSAAEVSEEFGRE,0.495
24,HMISADSSKVDTLVQVYSNMKPIQAAQVFEKMDEDLVIEILSRMKKKNAADILNLIKTEKAQVFAEKYA,-0.109

row,Sequence,soluble fraction (log2)
1,HMISAEPVGEDLFKVAFPFLGGSTVFEKTIEQFIEEHPSKRIDHIYTVPNPLRLKKADALIFYIITEEK,-1.07
2,HMISASDLQTYLKGMDYPARKEDLIVHAQRNNAPESVIAAIRQFSDRTYQSAADVSEEFGKI,0.602
3,HMISDEELLVSTKKEIMSLATVLTKTDKKDDAIAIMKEYDPAANPNRIKDVNKAKELLERLQKLG,-0.225
4,HMISDISEIEAIIVEVLKVFPNQLQEYLDGKEKILSFFVGQVMQRTKGRANPSLVNEILKEKIKN,-1.22
5,HMISEAEGTILQLLKEADGTLPFTYKSDADEIKKVFGMSKKNFKRTLTELIEAKKIQLLDDAIVL,-0.632
6,HMISEKEIKIIEDILARWNGKLTWDDFTSKVAKKLNLPSLSKFTLMGYPEIKQAFLTRKQTLK,-0.53
7,HMISENFVEAKILLTEDNRPKSLEILKDIIRQHDKVYSPLSLFLILDEDLEENKEIILEYFDLVLS,-0.327
8,HMISESLLDEIPGLGETRRNSLLREFGSVAMIRKASAEEIASRVRGIGAEFAAAIHDFLQTH,-0.446
9,HMISFHEYLTQLLDEKGLTKAQVITDSNIQKNYGYQIFDGSKTPSRDKVIAIALAMQLTLDEANRLLHLSN,-1.75
10,HMISFTDLEHIEKMIENVLYTKTPLNLPPTDAKIRKIEHQIARRYGLNSESFGDEPRRFVVVYPNEERE,-0.907
11,HMISKAQLFSEEELTELYRATGYQLENDPEIHREQFEALQAVRAKIEYAVPDVQEKLEQEQNLGQQ,0.512
12,HMISKRFQVDEENSNNRVDIFLANNLDSISRGIVQQLILDGKVLVNGETVKRNHLLKTNDEVDISFEI,0.349
13,HMISRDPYDAGAIKRHFSASGLFSSKELAHYLGKSVSTAKNVLSDLQQQGIVEMVGQGPATKYRFI,0.772
14,HMISSRDAAVIGLVENIQRAQLNAIDESSGFKHLMETYNLESKEIALLVGKSRSYVSNSLRLSK,0.124
15,HMISTVFYVDVKGEVHHPGVYQMKAENRVKDLIEAAGGFTPLADDQKLNLAQLLEDQMVIVVPKKGEEV,0.243
16,HMISVTNRTGTGLNDVKVEVFPVGRQMVFSATVFRVESEATNRFSLGELRGSDGTPFNQRVHRPESI,-0.184
17,HMITAEQENILFEKASDDISNNIINKGIWTKAYSQAGGDESKQKAIYIDLLVNYYKMLIKAGEEFEDI,-2.42
18,HMITALLPGTVLIREFDGRDYHVTVATDGRFEMDGHKYPSLSAVAKHITGTQWSGPAFFGLN,-1.06
19,HMITASNYFIEVERIGIETLPETLKKGHDLVVKSTSNGTNWANYQTSEGIKKVIDLYFQKLNEYANTV,-1.83
20,HMITDSSEIEAMVDALVKENPGQAEQYKDGNMKVAGWFIGQIMKVSKGKANPQLVGDLLKKKLG,0.197
21,HMITERVPVPDLTGMPLMEAIKTLNSSKLQYQVVGSVIEGDENRIIDQTPKPDIMVSEKSIVLLYLETYRG,-2.6
22,HMITIDADTGKRVYTRKEVADLVGASTQSIRLWEDAGAIPASVRDEGGYRYWYEEDLEAIKAYAS,-0.203
23,HMITKAIELAEEAEKETVWLGVWEHNHPAQKFYQSLGFVKTDEHDFYMGNERHTDYTMTKQLK,-0.344
24,HMITLKKRRQEAILEIIEKYDLSTQDELLQKLKDSGFDATQATVSRDIKELRLVKTMGANGQYKYAVT,-0.881

row,Sequence,soluble fraction (log2)
1,HMITMADKIDTALSEMAANNEKINVSQVAKRLGISNSAIYKFNPEKIPDIQTAQKRQKHKAEAIAVGTEN,-0.0393
2,HMITMWYYKKDGNIIGPASARKIASMRELGIITDSTPVSRKRNAKNWETFGGLSEKINLESSQWD,-1.98
3,HMITNEDINIKKLLVVMKDTPLSANEIMDKLNIKSKETLRNMYLDPAIKKGLINLTIPDKPTSKNQKYYK,-0.426
4,HMITNESEIERIVEAIISKNPESIAQYRSGITKVLGFLVGQVMKETKGRANPALVNRIIISKME,-0.899
5,HMITSELALVKLVVKGANRVEALRVAETFRARALDVTLSSFVFELTGKPSKLDAFIGLMRSLGDTEILKR,-4.17
6,HMIVEIVPSALHGERVDRIVAFILDVSRSVASGLVERGAVHVDGSVETSGKVRLVEGQEVSVDPSQVPG,-0.69
7,HMIVNEQEQTFIKAMRDDDFNTILELKMKGYQPSDNVLKSLQPDISSTTFIAAAKIFQMERMLK,-0.502
8,HMIVSVPNVRGMGESKAAAALQNRGLLVSIDYESSTSASQGEVIRQSISPGTEVTKGSSITIIIAVSPN,-1.56
9,HMIVVMQPGATKEQVQAVIDRVAEFGFQTKLAPGAERMVIGVVGSPLPDTLKEALERLPGVEEVIRVSKR,-0.379
10,HMIVVTSPQVTDERIAEIVAFIEKHGVQAHVSRGTDRTVIGIIGKADPVLAEHLRSMQGVENVIKIS,-0.167
11,HMIYKLTLLRDLPEAKAGFDFYLRGGLASHDGEEWFSWVTREPIYARLYWLYVEKREEWVLVEETDI,-4.51
12,HMIYMIDPNDEIAVKLDEIYQRYLNRTIDPEGLIFFYNQIRNAQMGYSDVEKRILESPEYVSIPK,-0.53
13,HMIYQNVINLLKNRLNSSIYNIGDLLPSEKELAEHYDVSRNTLRKALKTLEEEGMIERRHGSGTYLRNK,-1.67
14,HMIYWGTMVDKIYEVLSLAGKPLSLMEIYQQVKVFFPNSTKSSIEASMRLDARHRFKYDVEGHVYSLVD,-3.44
15,HMIYYTEEELVKRYIDFSNYLGKKEGASDVDFKKYAVEFGIPSRDHYNRKFITLFNLKIKAGYKPIRH,-0.835
16,HMKAAQDQDQAATLLQKATGVNQDQAKLAATVLFKEQSVTPIRQAIASGDYYQAYQDAKSLQQQ,0.221
17,HMKADIEQVQRAFDTLDPKNQQLVLDAMKAATAELDPNSDQFKTNTEFINDNQKALDRHAKAS,0.122
18,HMKAGAVFNEGDVLYPKIGGLKLMAAAGEGGKVVATLAKTDEMIYMGEEQSGFVKVESGSGSGWVKKILVA,0.438
19,HMKAGEDAVQKAVLEAVAESAAAVADYKAGSERALNFIVGKVMKKTRGKASAAEVHRLVREEVDR,0.0653
20,HMKAILHQESRSGFANATVIGGLDKFLDTNWNQLSKYIKKIETPYSDRSLEDRKIWISTILGILSTEI,0.279
21,HMKALHEEIAEKIQEQILRSNLAPGDKLDTELELAARYGVSRSTIRQALIQLESAGLIDRLHGRGTFVAD,0.59
22,HMKAPDSQYKPLTDFQTDASFQKLDAYLRNRYPAMLANAVVYDVLRTPDAISYRVNYQVDNKMITINAAVT,-1.66
